These sequences were tested against FGFR3 (UniProt P22607) (assay: phosphorylation enrichment, bacterial display (enrichment ratio); higher = better substrate or ligand; peptides without Tyr show the background).
FGFR3, sequence (P22607 whole entry, looked up): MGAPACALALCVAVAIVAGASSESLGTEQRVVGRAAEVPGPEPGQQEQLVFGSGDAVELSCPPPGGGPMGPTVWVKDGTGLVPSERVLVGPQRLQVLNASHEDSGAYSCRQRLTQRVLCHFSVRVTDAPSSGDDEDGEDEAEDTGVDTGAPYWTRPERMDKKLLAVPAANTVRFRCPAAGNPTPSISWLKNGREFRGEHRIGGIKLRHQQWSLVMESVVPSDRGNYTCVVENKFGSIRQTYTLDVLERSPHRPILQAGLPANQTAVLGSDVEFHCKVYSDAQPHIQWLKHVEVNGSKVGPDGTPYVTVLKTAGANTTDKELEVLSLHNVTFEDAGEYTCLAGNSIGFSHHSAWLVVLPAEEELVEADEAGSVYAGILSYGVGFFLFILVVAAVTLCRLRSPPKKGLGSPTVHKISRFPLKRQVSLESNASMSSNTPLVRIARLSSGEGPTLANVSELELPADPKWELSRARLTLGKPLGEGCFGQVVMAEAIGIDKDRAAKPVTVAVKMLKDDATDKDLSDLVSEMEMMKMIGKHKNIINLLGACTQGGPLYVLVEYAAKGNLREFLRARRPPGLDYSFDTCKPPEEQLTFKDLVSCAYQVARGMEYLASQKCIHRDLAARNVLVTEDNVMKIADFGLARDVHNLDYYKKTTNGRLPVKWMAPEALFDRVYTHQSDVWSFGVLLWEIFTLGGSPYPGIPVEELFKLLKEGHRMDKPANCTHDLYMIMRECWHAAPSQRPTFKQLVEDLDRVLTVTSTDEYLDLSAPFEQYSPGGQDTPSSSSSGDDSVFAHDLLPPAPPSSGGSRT
With VHKKGYNKLNQ [ZNF676_Y98_E96K] the phosphorylation enrichment was 0.516. In the case of PVGDAYKKKGL [NMNAT1_Y55], the phosphorylation enrichment is reported as 0.624. In the case of CLGNQYVNVMN [SLC3A1_Y461_R456C], the phosphorylation enrichment is reported as 0.955. For FPCSVYVPDEW [INSR_Y1011], the phosphorylation enrichment was 0.769. Work on IFCIQYNIRAF [MYH4_Y820] yielded a phosphorylation enrichment of 1.08. With CASQLYPRHKH [DCTN4_Y263] the phosphorylation enrichment was 0.639. KNKNRYKNILP [PTPN11_Y279] was tested, and the phosphorylation enrichment was 0.889. Work on ELTSKYRGGGG [HBA1_Y141_V136E] yielded a phosphorylation enrichment of 0.411. Sequence LNTFHYAGVSA [POLR2A_Y1109] has a phosphorylation enrichment of 0.56. PARLEYCENEK [IRS1_Y46_Y47C] showed a phosphorylation enrichment of 1.16. YDEYRYRSFIK [CFTR_Y517_V520F] gave a phosphorylation enrichment of 0.679. Sequence CTTIHYNYMCD [TP53_Y234_N239D] has a phosphorylation enrichment of 0.631. HRGHLYLAIEY [TEK_Y899_Y897H] was tested, and the phosphorylation enrichment was 1.23. With NKEPRYQEDPP [TJP2_Y479] the phosphorylation enrichment was 0.823. With PSQRRYLYYYS [PTEN_Y174_V175L] the phosphorylation enrichment was 0.937. DGQSVYKLTDF [TBK1_Y153] gave a phosphorylation enrichment of 0.474. Sequence TIMTDYNPNYC [ALK_Y1092] has a phosphorylation enrichment of 0.904. For MALDIYRASFF [ALK_Y1278_R1275L_YF], the phosphorylation enrichment was 0.767. Sequence LSDVIYVILRK [PMP22_Y153_G150D] has a phosphorylation enrichment of 0.684. ALCHFYKLNII [ETV6_Y402_R399C_YF] was tested, and the phosphorylation enrichment was 0.806. In the case of REDIFYTSKLW [AKR1C2_Y81], the phosphorylation enrichment is reported as 1.01. LGMSQYFRLFN [CPT2_Y217_D213G] showed a phosphorylation enrichment of 0.766. Sequence MPQNEYIELHC [NSA2_Y6_R11C] has a phosphorylation enrichment of 2.58. EKEKKYMLPLD [DNM2_Y563] was tested, and the phosphorylation enrichment was 0.466. For FTFDPYSEEEP [IL2RB_Y387_D391E_YF], the phosphorylation enrichment was 0.811. PIQLFYTRRNT [GHR_Y86] gave a phosphorylation enrichment of 0.884. Work on QMVDMYASSFM [AVPR2_Y124_G122D_YF] yielded a phosphorylation enrichment of 0.923. Work on DAVAVYHGKIS [SH2D1A_Y7] yielded a phosphorylation enrichment of 0.492. For RFLRGYQQDAF [HLA-A_Y137_R138Q_YF], the phosphorylation enrichment was 0.677. In the case of FLNSIYKSRDE [ROS1_Y2227], the phosphorylation enrichment is reported as 0.507. With ALPVFYAATIA [SLC20A2_Y187] the phosphorylation enrichment was 0.651. FPDFVYKRIKA [DPYSL2_Y479] gave a phosphorylation enrichment of 0.543. With ETKKQYNSFTF [TMED3_Y85_D86N_YF] the phosphorylation enrichment was 0.454.

The sequences below were run against MERTK (UniProt Q12866) in the same assay as above.
MERTK, sequence (Q12866 whole entry, looked up): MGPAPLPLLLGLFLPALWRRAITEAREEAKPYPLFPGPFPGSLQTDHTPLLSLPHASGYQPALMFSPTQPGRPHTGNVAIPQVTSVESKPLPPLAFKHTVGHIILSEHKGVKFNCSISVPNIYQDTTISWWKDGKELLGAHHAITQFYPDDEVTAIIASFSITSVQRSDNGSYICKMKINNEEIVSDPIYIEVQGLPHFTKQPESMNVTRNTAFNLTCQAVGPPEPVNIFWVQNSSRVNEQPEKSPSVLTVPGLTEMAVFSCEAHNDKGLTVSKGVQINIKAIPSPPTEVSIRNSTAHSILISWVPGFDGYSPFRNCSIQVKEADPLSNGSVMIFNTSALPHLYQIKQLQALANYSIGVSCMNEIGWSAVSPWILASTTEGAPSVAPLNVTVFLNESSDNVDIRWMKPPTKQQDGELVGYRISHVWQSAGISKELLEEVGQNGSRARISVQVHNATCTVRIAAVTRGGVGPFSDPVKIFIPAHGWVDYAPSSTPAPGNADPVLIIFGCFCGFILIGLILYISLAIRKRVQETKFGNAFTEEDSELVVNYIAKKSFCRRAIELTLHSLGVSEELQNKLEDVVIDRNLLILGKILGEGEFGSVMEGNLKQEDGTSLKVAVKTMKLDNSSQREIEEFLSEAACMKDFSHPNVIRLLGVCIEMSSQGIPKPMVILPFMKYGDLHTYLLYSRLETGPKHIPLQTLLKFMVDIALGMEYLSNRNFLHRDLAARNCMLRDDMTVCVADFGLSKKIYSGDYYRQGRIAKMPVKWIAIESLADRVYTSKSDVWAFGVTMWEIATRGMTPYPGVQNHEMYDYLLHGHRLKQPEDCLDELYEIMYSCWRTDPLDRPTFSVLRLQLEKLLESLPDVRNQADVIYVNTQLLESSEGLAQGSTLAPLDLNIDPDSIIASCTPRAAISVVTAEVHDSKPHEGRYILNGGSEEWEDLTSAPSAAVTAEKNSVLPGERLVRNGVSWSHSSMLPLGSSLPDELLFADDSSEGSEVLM
In the case of VHKKGYNKLNQ [ZNF676_Y98_E96K], the phosphorylation enrichment is reported as 0.384. With PVGDAYKKKGL [NMNAT1_Y55] the phosphorylation enrichment was 0.874. Sequence CLGNQYVNVMN [SLC3A1_Y461_R456C] has a phosphorylation enrichment of 0.336. With FPCSVYVPDEW [INSR_Y1011] the phosphorylation enrichment was 0.476. IFCIQYNIRAF [MYH4_Y820] showed a phosphorylation enrichment of 0.436. Sequence CASQLYPRHKH [DCTN4_Y263] has a phosphorylation enrichment of 0.428. Work on KNKNRYKNILP [PTPN11_Y279] yielded a phosphorylation enrichment of 0.799. ELTSKYRGGGG [HBA1_Y141_V136E] showed a phosphorylation enrichment of 0.503. LNTFHYAGVSA [POLR2A_Y1109] was tested, and the phosphorylation enrichment was 0.449. For PARLEYCENEK [IRS1_Y46_Y47C], the phosphorylation enrichment was 0.762. YDEYRYRSFIK [CFTR_Y517_V520F] was tested, and the phosphorylation enrichment was 0.518. Sequence CTTIHYNYMCD [TP53_Y234_N239D] has a phosphorylation enrichment of 0.426. Work on HRGHLYLAIEY [TEK_Y899_Y897H] yielded a phosphorylation enrichment of 0.495. In the case of NKEPRYQEDPP [TJP2_Y479], the phosphorylation enrichment is reported as 0.508. With PSQRRYLYYYS [PTEN_Y174_V175L] the phosphorylation enrichment was 4.1. DGQSVYKLTDF [TBK1_Y153] showed a phosphorylation enrichment of 0.471. For TIMTDYNPNYC [ALK_Y1092], the phosphorylation enrichment was 0.6. Work on MALDIYRASFF [ALK_Y1278_R1275L_YF] yielded a phosphorylation enrichment of 0.776. LSDVIYVILRK [PMP22_Y153_G150D] showed a phosphorylation enrichment of 0.278. ALCHFYKLNII [ETV6_Y402_R399C_YF] showed a phosphorylation enrichment of 0.499. For REDIFYTSKLW [AKR1C2_Y81], the phosphorylation enrichment was 0.645. Sequence LGMSQYFRLFN [CPT2_Y217_D213G] has a phosphorylation enrichment of 0.58. MPQNEYIELHC [NSA2_Y6_R11C] was tested, and the phosphorylation enrichment was 0.478. EKEKKYMLPLD [DNM2_Y563] was tested, and the phosphorylation enrichment was 0.449. Work on FTFDPYSEEEP [IL2RB_Y387_D391E_YF] yielded a phosphorylation enrichment of 0.469. For PIQLFYTRRNT [GHR_Y86], the phosphorylation enrichment was 0.691. QMVDMYASSFM [AVPR2_Y124_G122D_YF] was tested, and the phosphorylation enrichment was 0.707. With DAVAVYHGKIS [SH2D1A_Y7] the phosphorylation enrichment was 0.369. Sequence RFLRGYQQDAF [HLA-A_Y137_R138Q_YF] has a phosphorylation enrichment of 0.558. With FLNSIYKSRDE [ROS1_Y2227] the phosphorylation enrichment was 0.357. With ALPVFYAATIA [SLC20A2_Y187] the phosphorylation enrichment was 2.96. In the case of FPDFVYKRIKA [DPYSL2_Y479], the phosphorylation enrichment is reported as 0.377. Sequence ETKKQYNSFTF [TMED3_Y85_D86N_YF] has a phosphorylation enrichment of 0.396.

— the supplement of paper PMC10065799, “High-throughput profiling of sequence recognition by tyrosine kinases and SH2 domains using bacterial peptide display” (eLife, 2023)
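Further: 11-residue human phosphosite peptides and single-mutation variants displayed on the E. coli surface, counted by deep sequencing, each peptide's frequency after selection divided by its frequency in the unselected input library; frequency after pTyr selection over input frequency; kinase dosed for 20-30% of maximal phosphorylation in three min.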
